T1: PIGF (UniProt P49763-2 21-149, limits assumed)
T1 construct: also called placenta growth factor
T1 sequence (looked up): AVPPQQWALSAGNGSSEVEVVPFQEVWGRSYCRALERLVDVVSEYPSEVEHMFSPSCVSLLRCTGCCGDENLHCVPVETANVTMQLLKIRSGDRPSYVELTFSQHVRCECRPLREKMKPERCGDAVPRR

T2: VEGFD (UniProt O43915 93-201, limits assumed)
T2 sequence (looked up): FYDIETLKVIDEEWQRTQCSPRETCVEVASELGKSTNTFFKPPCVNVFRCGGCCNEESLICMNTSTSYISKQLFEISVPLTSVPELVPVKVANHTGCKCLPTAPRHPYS

T3: VEGFB (UniProt P49765-2 22-188, limits assumed)
T3 sequence (looked up): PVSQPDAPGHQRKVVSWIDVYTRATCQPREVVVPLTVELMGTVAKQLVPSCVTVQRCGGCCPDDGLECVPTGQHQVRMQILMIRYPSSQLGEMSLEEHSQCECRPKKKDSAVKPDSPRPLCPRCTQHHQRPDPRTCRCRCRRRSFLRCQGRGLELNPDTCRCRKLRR

T4: VEGFC (UniProt P49767 103-227, limits assumed)
T4 sequence (looked up): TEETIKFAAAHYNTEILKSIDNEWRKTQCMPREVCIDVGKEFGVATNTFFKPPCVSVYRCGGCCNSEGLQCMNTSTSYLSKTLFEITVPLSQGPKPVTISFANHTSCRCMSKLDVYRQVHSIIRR


Assays:
PIGF = molecular target: T1, PIGF; test: solid phase binding ELISA on coated PIGF (Example 12.8)
Description: (§1) Binding to VEGFB, VEGFC, VEGFD and PIGF is assessed via a solid phase binding ELISA. […] Wells are blocked with a casein solution (1% in PBS). […] As positive controls serial dilutions of the appropriate receptors are taken along and detected with horseradish peroxidase (HRP)-conjugated goat anti-human IgG, Fc specific antibody (Jackson Immuno Research Laboratories Inc., West Grove, Pa., USA) and a subsequent enzymatic reaction in the presence of the substrate TMB (3,3′,5,5′-tetramentylbenzidine) (Pierce, Rockford, Ill., USA).

VEGFD = molecular target: T2, VEGFD; test: solid phase binding ELISA on coated VEGF D (Example 12.8)
Description: as §1

VEGFB = molecular target: T3, VEGFB; test: binding ELISA on coated VEGFB (Example 12.8), OD 450 nm
Description: as §1

VEGFC = molecular target: T4, VEGFC; test: binding ELISA on coated VEGFC (Example 12.8), OD 450 nm
Description: as §1

binding result (PIGF) | binding result (VEGFD) | binding result (VEGFB) | binding result (VEGFC) | Binder
no binding (tested: about 5e-7 M) | no binding (tested: about 5e-7 M) | no binding (tested: 5e-7 M) | no binding (tested: 5e-7 M) | VEGFBII022 (VHH, bivalent (heterodimeric) VHH; also called VEGFBII23B04-9GS-5B05) EVQLVESGGGLVQTGDSLRLSCEVSGRTFSSYSMGWFRQAQGKEREFVVAISKGGYKYDSVSLEGRFTISKDNAKNTVYLQINSLKPEDTAVYYCASSRAYGSSRLRLADTYEYWGQGTQVTVSSGGGGSGGGSEVQLVESGGGLVQPGGSLRLSCVASGIRFMSMAWYRQAPGKHRELVARISSGGTTAYVDSVKGRFTISRDNSKNTVYLQMNSLKAEDTAVYYCNTFSSRPNPWGAGTQVTVSS
no binding (tested: about 5e-7 M) | no binding (tested: about 5e-7 M) | no binding (tested: 5e-7 M) | no binding (tested: 5e-7 M) | VEGFBII023 (VHH, bivalent (heterodimeric) VHH; also called VEGFBII23B04-40GS-10E07) EVQLVESGGGLVQTGDSLRLSCEVSGRTFSSYSMGWFRQAQGKEREFVVAISKGGYKYDSVSLEGRFTISKDNAKNTVYLQINSLKPEDTAVYYCASSRAYGSSRLRLADTYEYWGQGTQVTVSSGGGGSGGGGSGGGGSGGGGSGGGGSGGGGSGGGGSGGGGSEVQLVESGGGLVQAGGSLRLSCAASGRTFSNYAMGWFRQAPGKERVLVADISSSGINTYVADAVKGRFTISRDNAKNTVYLQMNSLKPEDTAVYYCAASAWWYSQMARDNYRYWGQGTQVTVSS
